System: U2OS cells
Assay: Growth of U2OS cells after adding concentrated conditioned media or free protein factor
Assay type: cell-based, human
Settings: free factor expressed in E. coli added at 5 μg/ml, after a week (6 days), vs control
Procedure: FIGS. 13A-F—The cofactor has a unique lipid makeup depending on the producing cell type but would SNZR 1P1L and SNZR 1P2L give the same or different response if added to the same cell type. In this case we used the control cell line U2OS and added a 5× concentrated condition medium from PAT cells or from U2OS-pESY1c cells. An additional test was done to see if the free factor made in E. coli had any activity on U2OS cells if applied at a high concentration (5 μg/ml).
To answer these questions, U2OS cells were grown in regular media as a control, or with 5× concentrated condition media from U2OS-pESY1c cells expressing the SNZR 1P1L, and from 5× concentrated condition media from PAT cells expressing SNZR 1P2L. In addition, SNZR 1P purified from E. coli, was added at 5 μg/ml—3 orders of magnitude greater than the estimated level in CM (FIG. 13a,b,c,d). […] The high level of the protein factor was chosen because it seemed unlikely that the factor without the cofactor would have a lot of activity and small amounts of activity are difficult to detect by visualization.
U2OS cells were grown in F12/DMEM medium with 0.2% fetal bovine serum. In 75 cm^2 flasks the medium, […], was changed every other day. When the cells first overgrow the monolayer, they are very sensitive to medium volume and will apoptose if too much medium is added.
CM was produced by growing cells in 225 cm^2 flasks. […]

B1: SNZR 1P: secreted 94 AA cell density signal protein factor (chicken, SEQ ID NO:3; tagged form SEQ ID NO:13) (protein, listed as Gallus gallus)
chain: EPLAVVDLRPQSSVKVEVHFQDKVEEMSIRLDQTVAELKKHLKTVVQLSTSNMLLFYLDQEAPFGPEEMKYSSRALHSYGIRDGDKIYVEPRMK
For B1, the “Effect on growth of U2OS cells” value was “did not appear to change the cultures” and the “Effect on growth of U2OS cells” value (listed as secreted form of the factor) was “did not appear to increase growth”.

Reference: patent US10428093B2, “Lipid co-factor essential for cell density signaling” (priority 2013, dated 2019)
